Measured values taken from the supplement of paper PMC10126150.
± gives the standard deviation of the averaged measurements.

System: ATP
Experiment: switch fluorescence ratio, 500 uM ATP over buffer (Cy3 cluster intensity, sum of 5 cycles each) (fold (ratio)); higher = stronger signal-on switching upon ATP binding; sequences stand for … in TCGTCGGCAGCGTCAGATGTGTATAAGAGACAGTTTTTTTTTTTTTTTTTTTTTTTTT…TC
Details: aptamer strand: ATP DNA aptamer (quencher-CACCTGGGGGAGTATTGCGGAGGAAGG + anchor), 100 nM annealed; ATP concentration: 500 uM
How it was run: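 For every switch-domain sequence, the fluorescence ratio is the mean of per-cluster values, each being summed target-cycle Cy3 intensity over summed buffer-cycle Cy3 intensity. Clusters outside 100-1000 RFU were excluded. On a modified Illumina MiSeq flow-cell, the Cy3-labelled switching-strand clusters were annealed to 100 nM quencher-labelled ATP aptamer, imaged in selection buffer and then after 15 min with 500 uM ATP at 22 °C. Five such cycles were run, with NaOH stripping and re-annealing between them.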
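Also: ATP exposure 15 min at 22 °C before imaging.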

TTTTGGCGCG and AAGAGAGGGG are within error of each other in switch fluorescence ratio: 1 ± 0.061 for the first, 1.02 ± 0.029 for the second.

Compared with GATAGGTGGT, GCAGTAGCAA is higher in switch fluorescence ratio: 0.9691 ± 0.0046 for the first, 1.08 ± 0.03 for the second.

TTATACGCGG and ACGTTCGGAG are within error of each other in switch fluorescence ratio: 0.991 ± 0.026 for the first, 1.05 ± 0.05 for the second.

ATAGGGGGGA and CGCATCCTTG are within error of each other in switch fluorescence ratio: 1.01 ± 0.018 for the first, 1.03 ± 0.027 for the second.

TCTCTGTTTT and TGAGGTAAGG are within error of each other in switch fluorescence ratio: 1.05 ± 0.022 for the first, 0.997 ± 0.033 for the second.

TTGAGGGGCG and GCCAGGGCTG are within error of each other in switch fluorescence ratio: 0.996 ± 0.044 for the first, 1 ± 0.024 for the second.

TTTCCGAGGA and TTGAACGAGA are within error of each other in switch fluorescence ratio: 1.03 ± 0.069 for the first, 0.998 ± 0.019 for the second.

GGATTCAGCT and AAGGGGTGG are within error of each other in switch fluorescence ratio: 0.978 ± 0.027 for the first, 1.02 ± 0.029 for the second.

First: TGGCTCAGGC
Second: CTCAGCAGTC
The switch fluorescence ratio of the first is lower: 1 ± 0.025 for the first, 1.2 ± 0.034 for the second.

TCGTGTTCTG and AAGCGAGCCG are within error of each other in switch fluorescence ratio: 1.01 ± 0.029 for the first, 1.02 ± 0.091 for the second.

ATACGAATTC and CATCTAAAGA are the same in switch fluorescence ratio: 1.01 ± 0.049 for the first, 1.005 ± 0.0067 for the second.

GAAGTGGGAT and TTAGTTACGG are within error of each other in switch fluorescence ratio: 0.984 ± 0.022 for the first, 0.999 ± 0.019 for the second.

ATTTATGTTC and TTAGTGTTTT are within error of each other in switch fluorescence ratio: 0.994 ± 0.033 for the first, 0.98 ± 0.05 for the second.

Compared with CCAGACACAC, AATAGTGGTA is lower in switch fluorescence ratio: 1.45 ± 0.018 for the first, 1 ± 0.029 for the second.

First: TTAAATTCAT
Second: ACATTAGTGG
The switch fluorescence ratio of the first is lower: 0.97175 ± 0.0009 for the first, 1.01 ± 0.01 for the second.

AAAAATAGTT and CGGTTTGTTA are within error of each other in switch fluorescence ratio: 1.03 ± 0.07 for the first, 0.985 ± 0.037 for the second.

Compared with TACGATATAC, TCAAACAGGG is lower in switch fluorescence ratio: 3.09 ± 0.34 for the first, 1.04 ± 0.051 for the second.

ACAAGTGTTC and ATATGATAGA are within error of each other in switch fluorescence ratio: 1 ± 0.051 for the first, 0.9921 ± 0.0026 for the second.

TAGTTTTCGC and GGGTTCGGGG are the same in switch fluorescence ratio: 1 ± 0.031 for the first, 1 ± 0.056 for the second.

GTGAGAGCTG and AGGTGGGCAG are within error of each other in switch fluorescence ratio: 0.952 ± 0.015 for the first, 0.984 ± 0.018 for the second.

First: CAAATCGTTG
Second: CAAGCATCGC
The switch fluorescence ratio of the first is higher: 0.9786 ± 0.0024 for the first, 0.94962 ± 2.2e-05 for the second.

AAATAAATTT and AAGGGTGTAA are the same in switch fluorescence ratio: 1.01 ± 0.055 for the first, 1.01 ± 0.069 for the second.

TATTTCGTTG and CGATTATTTC are within error of each other in switch fluorescence ratio: 0.998 ± 0.059 for the first, 0.983 ± 0.0096 for the second.

ATAATTTCAA and CGTCTTGTGG are within error of each other in switch fluorescence ratio: 0.999 ± 0.017 for the first, 1 ± 0.022 for the second.

GTGGGGCCGA and TTATAGGGG are within error of each other in switch fluorescence ratio: 1.01 ± 0.031 for the first, 1 ± 0.039 for the second.

First: GGGGCTTCTT
Second: CGGACGTGAC
The switch fluorescence ratio of the first is lower: 0.9823 ± 0.0038 for the first, 2.79 ± 0.2 for the second.

TTTTTTGAAC and TTTGTAGGGA are within error of each other in switch fluorescence ratio: 1.01 ± 0.03 for the first, 1.02 ± 0.028 for the second.

First: TCCCAAACAT
Second: CTTGATTTTT
The switch fluorescence ratio of the first is higher: 1.06 ± 0.009 for the first, 1 ± 0.016 for the second.

TTGTTGATTT and AAAAGATAGC are within error of each other in switch fluorescence ratio: 1.02 ± 0.034 for the first, 0.989 ± 0.04 for the second.

GGGATACTTT and ATAGCGCCG are within error of each other in switch fluorescence ratio: 1.5 ± 0.73 for the first, 1.03 ± 0.035 for the second.

Compared with AAATTGGGG, GGGGTAACAG is higher in switch fluorescence ratio: 0.9583 ± 0.0056 for the first, 1.01 ± 0.044 for the second.

TTTTAAGTCG and CCTGCAGTTT are within error of each other in switch fluorescence ratio: 1.05 ± 0.014 for the first, 1.04 ± 0.019 for the second.

TCTCGTTTTT and ATCGAATAGC are within error of each other in switch fluorescence ratio: 1 ± 0.043 for the first, 1.02 ± 0.034 for the second.

ACTAGGTGCG and TTTTTATGCT are within error of each other in switch fluorescence ratio: 1.06 ± 0.045 for the first, 0.99 ± 0.035 for the second.

GGGGTTGTGC and TCAATGGTTG are within error of each other in switch fluorescence ratio: 0.971 ± 0.035 for the first, 0.988 ± 0.028 for the second.

GATTCAAACG and CCCAGTGGGA are within error of each other in switch fluorescence ratio: 1.006 ± 0.0073 for the first, 2.25 ± 1.7 for the second.

First: AGAGGAGTCT
Second: GTATGGGTGG
The switch fluorescence ratio of the first is lower: 0.9706 ± 0.0019 for the first, 1 ± 0.024 for the second.

Going from GATAGGGTGC to CCTTGCCCTT, the switch fluorescence ratio falls from 1.14 ± 0.044 to 1.03 ± 0.014.

Compared with GGTTTTAAAT, CAGACGGAGT is higher in switch fluorescence ratio: 0.98195 ± 0.00028 for the first, 1.039 ± 0.01 for the second.

GAGATAGCTT and AGGGTCAGTG are within error of each other in switch fluorescence ratio: 0.955 ± 0.043 for the first, 1.02 ± 0.062 for the second.

AAGCGTGTGG and CGAAGATTTG are the same in switch fluorescence ratio: 1 ± 0.036 for the first, 1 ± 0.015 for the second.

TTTAAGGTTA and AAAGAGACGC are within error of each other in switch fluorescence ratio: 0.999 ± 0.025 for the first, 1.03 ± 0.068 for the second.

First: AAGGGTATGG
Second: TTCAGTGGAG
The switch fluorescence ratio of the first is lower: 0.9729 ± 0.0076 for the first, 1.009 ± 0.0087 for the second.

GAGTCCAGGG and CATATCGAAA are within error of each other in switch fluorescence ratio: 1.21 ± 0.27 for the first, 1.013 ± 0.0033 for the second.

ACTTTTTTAG and TTAAAAAAAT are within error of each other in switch fluorescence ratio: 0.992 ± 0.019 for the first, 1.73 ± 1.4 for the second.

First: AAGGAAATGG
Second: CCTGCAAACA
The switch fluorescence ratio of the first is lower: 1.01 ± 0.035 for the first, 2.22 ± 0.17 for the second.

ATGCATTTTT and GAATCGGTAG are within error of each other in switch fluorescence ratio: 1.02 ± 0.043 for the first, 0.9783 ± 0.0013 for the second.

GGTGCTTTTT and TCATATTATG are within error of each other in switch fluorescence ratio: 0.987 ± 0.023 for the first, 1.02 ± 0.034 for the second.

First: CTTTGGCTTT
Second: TGTATTTCGT
The switch fluorescence ratio of the first is lower: 0.967 ± 0.014 for the first, 1.01 ± 0.011 for the second.

Going from TTTACACAGG to ACTAAGGATT, the switch fluorescence ratio falls from 1.17 ± 0.035 to 1.02 ± 0.018.
